Assay results reported in patent publication CN106046162A (DONG ZHUMING BIOTECH CO LTD, dated 2016).

Legend:
人PD-1-Fc重组蛋白(RD) [1] = molecular target: T1, 人PD-1-Fc重组蛋白(RD) (human, UniProt Q15116 21-167, limits assumed); assay: ELISA, 3-fold dilutions of the antibody in 12 steps, goat anti-mouse IgG-Fc-HRP; the text prints the coat as hPD-L1-Fc but reports affinity for PD-1
T1 construct: Bought recombinant protein (RD); also called hPD-1-Fc; hPD-1; not shown: Fc part of the bought fusion protein

人PD-1-Fc重组蛋白(RD) [2] = molecular target: T1, 人PD-1-Fc重组蛋白(RD); assay: Biacore blocking assay, hPD-1-Fc on the chip, 2-fold dilutions of the antibody in 7 steps; blocks PD-1 binding to B7-H1

T1 sequence (Q15116 21-167 limits assumed): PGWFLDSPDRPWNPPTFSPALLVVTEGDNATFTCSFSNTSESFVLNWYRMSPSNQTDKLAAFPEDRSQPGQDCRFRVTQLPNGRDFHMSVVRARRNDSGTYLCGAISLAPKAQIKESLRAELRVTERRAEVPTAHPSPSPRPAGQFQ

B1: 抗人PD-1单克隆抗体2-189-H-1 (antibody, V domains shown)
VH: QVQLKESGPGLVAPSQSLSITCTVSGFSLTTYGVSWVRQPPGKGLEWLGVIWGDGSTDYHSVLISRLSITKDISKSQVFLKLNSLQSDDTATYYCAQQGSRGDYWGQGTTLTVSS
VL: DVLLTQTPLSLPVSLGDQASISCRSSQTIVHSNGITYLEWYLQKPGQSPKALISKVSNRLSGVPDRFSGSGSGTDFTLKISRVEAEDLGVYYCFQGSHIPYTFGGGTKLEIK
notes: Mouse hybridoma antibody (CCTCC C2015160), purified on Protein A; also called 本抗体; hPD-1抗体
EC50 (人PD-1-Fc重组蛋白(RD) [1]): 1.07 nM | EC50 (人PD-1-Fc重组蛋白(RD) [2]): 64.4 nM
